In patent publication US20080311575A1, “Modulation of Muci-Dependent Anti-Estrogen Resistance” (priority 2005, published 2008):
Blank lines part the entries; values can stand above or below the molecule they belong to. Residues, ends and D or L forms follow the SMILES beside them. *: point of attachment. Cbz = O=C(OCc1ccccc1)*

Columns and labels:
[1] = tested on: ERα-mediated transcription (ERE-tk-Luc); test: ERE-tk-Luc reporter assay in MCF-7/CsiRNA and MCF-7/MUC1siRNA-A cells; assay type: cell-based, human; conditions: MCF-7/CsiRNA versus MCF-7/MUC1siRNA-A cells, 100 nM E2 for 24 h
ERα = test: Immunoblot of ERα levels in MCF-7 and ZR-75-1 cells; assay type: cell-based, human; conditions: MG132 5 mM for 24 h
Description: FIGS. 5A-D. MUC1 stabilizes ERα. FIG. 5A. Lysates from the indicated MCF-7 (left) and ZR-75-1 (right) cells were immunoblotted with anti-ERa, anti-MUC1-C and anti-β-actin. WT: wild-type cells. FIGS. 5B and C. The indicated MCF-7 (left) and ZR-75-1 (right) cells were treated with 5 mM MG132 for 24 h. Lysates were subjected to immunoblotting with the indicated antibodies FIG. 5B. […] Lysates were immunoprecipitated with anti-ERα and the precipitates were analyzed by SDS-PAGE and autoradiography. A higher amount of MCF-7/MUC1siRNA cell lysate was used for immunoprecipitation to increase the ERα signals. Lysates not subjected to immunoprecipitation were immunoblotted with anti-β-actin. Intensity of the signals as determined by densitometric scanning is presented as the percentage of ERα remaining over time relative to control at 0 h.
Coimmunoprecipitation and immunoblotting.

breast cancer = conditions: patients with high ER and PgR expression levels; cited from earlier work
breast cancer cells = test: Induction of apoptosis in breast cancer cells; assay type: cell-based, human; conditions: both cell types (MCF-7, ZR-75-1); data not shown
[2] = molecular target: T1, 35S-labeled full-length ERα(1-595) (Homo sapiens (Human), UniProt P03372 1-595, 35S-labeled in in vitro transcription/translation (TNT) reactions); test: GST pull-down on glutathione beads, 35S-labeled full-length ERα, phosphoimaging
T1 construct: In vitro translated from pcDNA3.1-ERα; also called 35S-labeled ERα
T1 sequence: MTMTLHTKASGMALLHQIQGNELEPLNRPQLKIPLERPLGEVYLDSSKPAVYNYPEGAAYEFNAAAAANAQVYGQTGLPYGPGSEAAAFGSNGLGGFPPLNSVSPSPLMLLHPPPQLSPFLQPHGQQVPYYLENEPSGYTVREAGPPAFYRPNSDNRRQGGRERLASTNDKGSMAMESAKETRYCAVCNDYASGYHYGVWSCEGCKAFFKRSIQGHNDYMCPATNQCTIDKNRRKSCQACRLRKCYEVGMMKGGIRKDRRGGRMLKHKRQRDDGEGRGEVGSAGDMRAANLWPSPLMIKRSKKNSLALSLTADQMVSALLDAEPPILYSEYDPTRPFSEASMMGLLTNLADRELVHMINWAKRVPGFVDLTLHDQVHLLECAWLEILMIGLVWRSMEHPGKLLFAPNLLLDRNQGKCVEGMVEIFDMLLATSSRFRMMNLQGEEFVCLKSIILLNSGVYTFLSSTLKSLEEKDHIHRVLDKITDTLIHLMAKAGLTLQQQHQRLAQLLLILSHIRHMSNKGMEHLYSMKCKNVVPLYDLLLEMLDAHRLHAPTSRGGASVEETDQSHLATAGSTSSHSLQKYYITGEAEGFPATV
Description: To localize the region within MUC1-CD that interacts with ERα, ³⁵S-labeled full length ERα was incubated with deletion mutants of MUC1-CD.

35S-labeled ERα(282-595) = molecular target: T2, 35S-labeled ERα(282-595) (Homo sapiens (Human), UniProt P03372 282-595, 35S-labeled in in vitro transcription/translation (TNT) reactions); test: GST pull-down on glutathione beads, 35S-labeled ERα deletion mutant, phosphoimaging
T2 sequence: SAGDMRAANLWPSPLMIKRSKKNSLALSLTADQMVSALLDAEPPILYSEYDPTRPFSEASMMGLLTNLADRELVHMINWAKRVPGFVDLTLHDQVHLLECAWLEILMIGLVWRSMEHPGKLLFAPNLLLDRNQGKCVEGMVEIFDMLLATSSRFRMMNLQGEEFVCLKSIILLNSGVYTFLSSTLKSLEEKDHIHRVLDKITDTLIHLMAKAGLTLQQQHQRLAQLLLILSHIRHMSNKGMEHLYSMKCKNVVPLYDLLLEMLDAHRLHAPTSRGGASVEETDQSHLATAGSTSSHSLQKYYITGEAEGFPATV

35S-labeled ERα(1-185) = molecular target: T3, 35S-labeled ERα(1-185) (Homo sapiens (Human), UniProt P03372 1-185, 35S-labeled in in vitro transcription/translation (TNT) reactions); test: as above
T3 construct: Deletion mutant that contains the AF1 domain
T3 sequence: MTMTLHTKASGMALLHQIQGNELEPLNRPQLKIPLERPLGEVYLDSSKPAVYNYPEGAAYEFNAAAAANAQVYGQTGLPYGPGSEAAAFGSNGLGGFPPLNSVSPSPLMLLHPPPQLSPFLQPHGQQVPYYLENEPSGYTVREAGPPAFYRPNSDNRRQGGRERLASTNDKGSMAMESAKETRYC

[3] = molecular target: T4, 35S-labeled ERα(Δ186-281) (Homo sapiens (Human), UniProt P03372 1-595, 35S-labeled in in vitro transcription/translation (TNT) reactions); test: as above
T4 construct: Internal deletion of residues 186-281, devoid of the DBD
T4 sequence: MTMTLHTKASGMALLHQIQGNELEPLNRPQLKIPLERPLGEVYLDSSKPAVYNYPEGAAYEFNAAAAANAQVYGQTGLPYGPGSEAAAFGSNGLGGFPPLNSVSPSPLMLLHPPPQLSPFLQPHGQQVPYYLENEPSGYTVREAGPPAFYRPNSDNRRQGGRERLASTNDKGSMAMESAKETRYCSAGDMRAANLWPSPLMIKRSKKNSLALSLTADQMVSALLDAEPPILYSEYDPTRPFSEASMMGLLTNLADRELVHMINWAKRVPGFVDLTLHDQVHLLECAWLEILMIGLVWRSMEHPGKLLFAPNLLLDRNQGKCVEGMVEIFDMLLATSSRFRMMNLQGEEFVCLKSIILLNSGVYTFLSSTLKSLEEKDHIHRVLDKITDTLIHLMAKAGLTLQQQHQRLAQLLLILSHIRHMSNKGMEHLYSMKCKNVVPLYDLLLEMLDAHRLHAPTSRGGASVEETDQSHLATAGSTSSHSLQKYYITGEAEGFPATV

[4] = molecular target: T5, proliferating cell nuclear antigen (PCNA) (human, UniProt P12004 1-261); test: coimmunoprecipitation: anti-PCNA precipitates of cell lysates, immunoblot with anti-MUC1-C
T5 construct: Precipitated from lysates with anti-PCNA as a control

[5] = molecular target: T6, estrogen receptor α (ERα), expressed in cells (human, UniProt P03372 1-595); test: cell-based or functional assay
T6 sequence: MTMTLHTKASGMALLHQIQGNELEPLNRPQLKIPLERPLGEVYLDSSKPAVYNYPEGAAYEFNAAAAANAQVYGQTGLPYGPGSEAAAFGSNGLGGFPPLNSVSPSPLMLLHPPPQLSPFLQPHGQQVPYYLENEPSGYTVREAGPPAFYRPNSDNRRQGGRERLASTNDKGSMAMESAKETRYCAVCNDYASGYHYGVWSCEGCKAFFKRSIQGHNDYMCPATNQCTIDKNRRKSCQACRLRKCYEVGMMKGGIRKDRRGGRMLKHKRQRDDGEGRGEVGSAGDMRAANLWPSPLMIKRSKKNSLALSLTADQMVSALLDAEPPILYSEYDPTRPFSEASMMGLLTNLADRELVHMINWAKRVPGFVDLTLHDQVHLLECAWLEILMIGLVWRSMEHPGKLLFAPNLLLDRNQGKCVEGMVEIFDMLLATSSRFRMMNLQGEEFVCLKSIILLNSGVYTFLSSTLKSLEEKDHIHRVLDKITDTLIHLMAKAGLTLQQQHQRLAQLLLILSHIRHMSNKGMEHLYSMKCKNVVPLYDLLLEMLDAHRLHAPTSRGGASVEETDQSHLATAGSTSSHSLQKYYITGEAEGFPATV

T5 sequence (P12004 whole entry): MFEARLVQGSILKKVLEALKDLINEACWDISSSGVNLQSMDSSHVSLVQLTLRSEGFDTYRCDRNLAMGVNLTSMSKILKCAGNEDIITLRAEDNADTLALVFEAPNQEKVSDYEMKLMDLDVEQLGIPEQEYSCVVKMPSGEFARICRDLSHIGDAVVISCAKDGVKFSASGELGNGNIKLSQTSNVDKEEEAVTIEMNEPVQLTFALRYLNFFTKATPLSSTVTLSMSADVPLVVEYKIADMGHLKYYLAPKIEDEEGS

Molecule: C[C@]12CC[C@@H]3c4ccc(O)cc4CC[C@H]3[C@@H]1CC[C@@H]2O [E2, 17β-estradiol]
- MUC1-dependent activation of ERE-tk-Luc [1]: ~5 fold

Molecule: CC(C)C[C@@H](C=O)NC(=O)[C@H](CC(C)C)NC(=O)[C@H](CC(C)C)NC(=O)OCc1ccccc1 [MG132] (Cbz-Leu-Leu-Leu-aldehyde)
- effect on ERα expression (immunoblot) (ERα): increases in ERα expression

Molecule: C[C@]12CC[C@@H]3c4ccc(O)cc4C[C@@H](CCCCCCCCC[S+]([O-])CCCC(F)(F)C(F)(F)F)[C@H]3[C@@H]1CC[C@@H]2O (some centres unmarked) [ICI, ICI 182,780]
- effect on ERα expression (immunoblot) (ERα): down-regulation of ERα

Molecule: CC/C(=C(\c1ccccc1)c1ccc(OCCN(C)C)cc1)c1ccccc1 [TAM, tamoxifen]
- overall response rate (breast cancer): ≤ 70%
- induction of apoptosis (breast cancer cells): ≤ 10%

- binding result [2]: no binding
B1: GST-MUC1-CD with deletion of amino acids 9 to 46 (other, not shown: a dimerising Fc or GST; large carriers; small tags and cut ends)
chain: CQCRRKNYEKVSAGNGGSSLSYTNPAVAATSANL
notes: also called MUC1-CD deletion mutant (amino acids 9 to 46 deleted)

- binding result (35S-labeled ERα(282-595)): no binding
- binding result (35S-labeled ERα(1-185)): no binding
- binding result [3]: no binding
B2: GST-MUC1-CD(1-72) (other, not shown: a dimerising Fc or GST)
chain: CQCRRKNYGQLDIFPARDTYHPMSEYPTYHTHGRYVPPSSTDRSPYEKVSAGNGGSSLSYTNPAVAATSANL
notes: also called full-length MUC1-CD

- binding result [4]: no binding
- MUC1-dependent activation of ERE-tk-Luc (luciferase reporter, MCF-7/CsiRNA against MCF-7/MUC1siRNA-A cells stimulated with E2) [5]: ~5 fold
B3: MUC1 C-terminal subunit (MUC1-C) (other)
chain: SVVVQLTLAFREGTINVHDVETQFNQYKTEAASRYNLTISDVSVSDVPFPFSAQSGAGVPGWGIALLVLVCVLVALAIVYLIALAVCQCRRKNYGQLDIFPARDTYHPMSEYPTYHTHGRYVPPSSTDRSPYEKVSAGNGGSSLSYTNPAVAATSANL
notes: Endogenous ~20-25 kDa MUC1-C in lysates of human breast cancer cells
